Measured values as given in article PMC11720163, “Position-Dependent Effects of AP Sites Within an hTERT Promoter G-Quadruplex Scaffold on Quadruplex Stability and Repair Activity of the APE1 Enzyme”.

Key:
[1] = biological target: APE1 (human AP endonuclease 1), His-tagged (Homo sapiens) (UniProt P27695); assay: BLI; conditions: 1 mM Ca2+, N = F, BLI: 20 mM Tris-HCl pH 7.5, 100 mM KCl, 1 mM CaCl2, DNA 10-100 nM, temperature not stated, DNA annealed with at least 20 mM KCl
[2] = biological target: APE1 (human AP endonuclease 1), His-tagged (Homo sapiens, UniProt P27695 1-318); assay: BLI; 1 mM Ca2+; BLI: 20 mM Tris-HCl pH 7.5, 100 mM KCl, 1 mM CaCl2; DNA 10-100 nM; temperature not stated; DNA annealed with at least 20 mM KCl; conditions: protein: recombinant; label: 3'-TAMRA; three stacked intramolecular parallel G4s
Chain of APE1 (human AP endonuclease 1), His-tagged (P27695 whole entry): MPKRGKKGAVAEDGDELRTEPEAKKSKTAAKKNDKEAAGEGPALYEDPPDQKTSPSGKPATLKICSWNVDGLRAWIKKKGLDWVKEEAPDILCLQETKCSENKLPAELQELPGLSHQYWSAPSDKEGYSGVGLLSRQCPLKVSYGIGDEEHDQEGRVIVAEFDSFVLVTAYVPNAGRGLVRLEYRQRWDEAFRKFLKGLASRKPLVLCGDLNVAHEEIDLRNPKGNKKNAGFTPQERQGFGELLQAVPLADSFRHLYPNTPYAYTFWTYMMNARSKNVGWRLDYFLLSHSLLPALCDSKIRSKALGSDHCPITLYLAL

Chain of APE1 (human AP endonuclease 1), His-tagged (Homo sapiens) (P27695 whole entry): as above

Row | Molecule | Kd ([1]; stable AP site analog) | other results
1 | GCCGCGGAAAGGAAGGGGAGGGGCTGGGAGGGCCCGGAGGGGGCTGGGCCGGNGACCCGGGAGGGGTCGGGACGGGGCGGGGTCCGCGCGGAGGAG [96-G243F] | 3 nM | –
2 | ACCTGGATGCCTATAGGGCGAATTGGGTACCGCTGAATTGCACTGGACTNGATCCTCGATGATCCTAAGCTAAGCTTCAGCTCCAGCCTAAGCCTG [96-RF] | – | Kd fold-increase relative to G4 substrates (fold higher Kd than G4 substrates) ([1]; stable AP site analog): 10
3 | GCCGCGGAAAGGAAGGGGAGGGGCTGGGAGGGCCCGGAGGGGGCTGGGCCGNGGACCCGGGAGGGGTCGGGACGGGGCGGGGTCCGCGCGGAGGAG [96-G242F] | 3 nM | –
4 | GCCGCGGAAAGGAAGGGGAGGGGCTGGGAGGGCCCGGAGGGGGCTGGGCCGGGGACCCGGNAGGGGTCGGGACGGGGCGGGGTCCGCGCGGAGGAG [96-G250F] | 3 nM | –
5 | GCCGCGGAAAGGAAGGGGAGGGGCTGGGAGGGCCCGGAGGGGGCTGGGCCGNNGACCCGGGAGGGGTCGGGACGGGGCGGGGTCCGCGCGGAGGAG [96-G242,243F] | – | Kd ([1]; stable AP site analog (two)): 3 nM
6 | GCCGCGGAAAGGAAGGGGAGGGGCTGGGAGGGCCCGGANGGGGCTGGGCCGGGGACCCGGGAGGGGTCGGGACGGGGCGGGGTCCGCGCGGAGGAG [96-G228F] | 3 nM | –
7 | 96-G4 (structured_DNA) DNA: GCCGCGGAAAGGAAGGGGAGGGGCTGGGAGGGCCCGGAGGGGGCTGGGCCGGGGACCCGGGAGGGGTCGGGACGGGGCGGGGTCCGCGCGGAGGAG | – | Kd [2]: 4.2 ± 1.4 nM
